The values that follow come from patent publication US20260191982A1 (GENOME, published 2026).

Values joined by “and” are separate entries in the source; they are usually repeats but may differ in a detail not shown here. Identical values can stand only once.

The target in test [1] is T1, human BCAM overexpressed on HEK293FT cells (HEK293FT/hBCAM) (human, UniProt P50895 32-628).
T1 construct: whole, on cells; also called HEK293FT/hBCAM cells; BCAM-overexpressing HEK293 cells
T1 sequence (looked up): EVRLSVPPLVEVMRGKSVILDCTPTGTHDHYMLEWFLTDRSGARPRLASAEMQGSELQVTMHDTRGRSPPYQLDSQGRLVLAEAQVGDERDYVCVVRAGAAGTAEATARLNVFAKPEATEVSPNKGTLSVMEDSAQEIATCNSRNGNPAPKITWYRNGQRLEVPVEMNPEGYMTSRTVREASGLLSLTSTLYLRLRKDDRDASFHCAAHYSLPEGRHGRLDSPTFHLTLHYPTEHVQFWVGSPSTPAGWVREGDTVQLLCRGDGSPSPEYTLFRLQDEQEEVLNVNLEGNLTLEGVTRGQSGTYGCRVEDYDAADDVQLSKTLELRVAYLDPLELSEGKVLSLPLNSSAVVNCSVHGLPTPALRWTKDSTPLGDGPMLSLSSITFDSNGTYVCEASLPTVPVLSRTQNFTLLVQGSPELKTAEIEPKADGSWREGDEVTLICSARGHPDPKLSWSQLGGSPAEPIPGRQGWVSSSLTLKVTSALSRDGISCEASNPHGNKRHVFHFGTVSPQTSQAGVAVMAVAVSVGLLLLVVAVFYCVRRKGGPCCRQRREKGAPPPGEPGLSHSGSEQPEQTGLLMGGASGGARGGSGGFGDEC
As to the kind of experiment: flow cytometry on HEK293FT cells overexpressing human BCAM, geometric MFI. The method, then:
The binding affinity of Ab1, Ab2 and Ab3 to HEK293FT cells overexpressing human BCAM (HEK293FT/hBCAM) was evaluated by flow cytometry analysis. HEK293FT cells (3.0×10⁶) were seeded to 10 cm cell culture dish and incubated for […], 5% CO₂ incubator. The next day, jetPRIME transfection reagent (20 μL) and human BCAM expression plasmid (10 μg) prepared in jetPRIME transfection buffer (200 μL) were mixed and incubated for 10 min at room temperature. The mixture was added to HEK293FT cells drop-wisely and incubated for 4 hr at 37° C., 5% CO₂ incubator. After 4 hr, the mixture from HEK293FT cells was replaced with fresh complete media and incubated for overnight. HEK293FT/hBCAM cells prepared at 1.0×10⁵ cells/100 μL in FACS buffer. The 100 μL of Ab1, Ab2 (3 pM~56 nM, serial 3-fold dilution, 10 points) and Ab3 (1.524 pM~30 nM, serial 3-fold dilution, 10 points), and HG4K IgG4 (SinoBiological, USA) and HG1K IgG1 (SinoBiological, USA) diluted with FACS buffer was added to cells and incubated for 30 min at 4° C. The cells were washed twice with 200 μL of FACS buffer, and then 1 μg/mL of secondary antibody (AlexaFlour® 647 AffiniPure Goat Anti-Human IgG (H+L), JacksonImmunoResearch, USA) diluted with FACS buffer was added to cells and incubated for 30 min at 4° C. in the dark. After washing twice with 200 μL of FACS buffer, and 7-AAD diluted with FACS buffer (1:100) was added to cells and transferred to FACS tubes for analysis. At least 1.0×10⁴ live cells per sample were read using FACSCantoII (BD, USA). The geometric mean fluorescence intensity for assessing the Ab1, Ab2 and Ab3 binding to hBCAM on HEK293FT/hBCAM cells was measured. The graphs were generated as sigmoidal dose-response curves and EC₅₀ values were determined by nonlinear regression with a four-parameter logistic equation using GraphPad Prism software (GraphPad Software Inc., San Diego, CA, USA). […] See FIGS. 20a and 20b and Table 1D and 1E.
For orientation: A flow cytometer gives signals particle by particle.

The target in test [2] is T2, human BCAM recombinant protein (SinoBiological, USA) (human, UniProt P50895 32-547).
T2 construct: Bought protein; In the sandwich ELISA it was captured by a coated anti-His antibody, which implies a His tag; also called recombinant human BCAM protein; basal cell adhesion molecule
T2 sequence (looked up): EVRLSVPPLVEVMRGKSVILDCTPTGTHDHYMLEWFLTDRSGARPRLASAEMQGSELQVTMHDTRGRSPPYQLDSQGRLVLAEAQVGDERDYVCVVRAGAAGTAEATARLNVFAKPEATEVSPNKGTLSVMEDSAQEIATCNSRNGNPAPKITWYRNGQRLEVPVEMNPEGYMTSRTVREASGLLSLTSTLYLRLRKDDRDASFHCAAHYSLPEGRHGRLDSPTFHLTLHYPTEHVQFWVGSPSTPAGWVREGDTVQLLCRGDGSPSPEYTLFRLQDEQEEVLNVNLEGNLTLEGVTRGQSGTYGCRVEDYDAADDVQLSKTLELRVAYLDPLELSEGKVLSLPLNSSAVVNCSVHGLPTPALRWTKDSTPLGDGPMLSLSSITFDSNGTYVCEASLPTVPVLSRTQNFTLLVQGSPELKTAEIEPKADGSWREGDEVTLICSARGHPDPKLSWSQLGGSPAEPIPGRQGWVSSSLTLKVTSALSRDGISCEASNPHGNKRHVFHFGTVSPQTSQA
As to the kind of experiment: indirect ELISA, human BCAM coated on plate at 25 nM, anti-human IgG Fc-HRP detection. As to the method:
The binding affinity of Ab1 and Ab2 to human BCAM recombinant protein was evaluated using an indirect ELISA (Enzyme-Linked Immunosorbent Assay) method. Human BCAM (SinoBiological, USA) diluted in PBS to 25 nM, and 50 μL of prepared proteins was added to 96-well half plate (Costar, USA) and incubated overnight at 4° C. Next day, solution containing human BCAM was removed, and the plate was washed 3 times with 150 μL of PBS-T (0.1% Tween-20 in PBS). The plate coated with human BCAM was blocked with 150 μL of 3% BSA blocking buffer for 1 hr at 37° C. Blocking buffer was removed, and 50 μL of Ab1 and Ab2 (6 pM~1 μM, serial 3-fold dilution, 12 points), and HG4K IgG4 (SinoBiological, USA) and HG1K IgG1 (SinoBiological, USA) diluted with blocking buffer was added to each well and incubated for 2 hr at 37° C. The plate was washed 3 times with 150 μL of PBS-T, and secondary antibody (HRP-conjugated anti-human IgG Fc antibody; ThermoFisher Scientific, USA) diluted with blocking buffer (1:100,000) was added to each well and incubated for 1 hr at 37° C. […] The absorbance (Optical density at 450 nm, OD₄₅₀) was measured at 450 nm using Synergy H1 (BioTek, Winooski, VT). The graphs were generated as sigmoidal dose-response curves and EC₅₀ values were determined by nonlinear regression with a four-parameter logistic equation using GraphPad Prism software (GraphPad Software Inc., San Diego, CA, USA).
(In general: ELISA stands for enzyme-linked immunosorbent assay.)

Test [3] has as its target T2, human BCAM recombinant protein …. As to the kind of experiment: sandwich ELISA, human BCAM captured by coated anti-His antibody, anti-human IgG Fc-HRP detection. As to the method: The binding affinity of Ab1 and Ab3 to human BCAM recombinant protein was evaluated using sandwich ELISA (Enzyme-Linked Immunosorbent Assay) method. Anti-His antibody (Biolegend, USA) diluted in PBS to 4 μg/mL was added to 96-well plate (ThermoFisher Scientific, USA) and incubated overnight at 4° C. Next day, solution containing anti-his antibody was removed, and the plate was washed 3 times with 300 μL of PBS-T (0.1% Tween-20 in PBS). The plate coated with anti-his antibody was blocked with 300 μL of 3% skim milk blocking buffer for 1 hr at room temperature. Human BCAM (SinoBiological, USA) diluted in blocking buffer to 25 nM, and 100 μL of prepared proteins was added to 96-well plate and incubated for 1 hr at room temperature. The plate was washed 3 times with 300 μL of PBS-T, and 100 μL of Ab1 and Ab3 (6.4 pM~500 nM, serial 5-fold dilution, 8 points) diluted with blocking buffer was added to each well and incubated for 1 hr at room temperature. […] The absorbance (Optical density at […]) was measured at 450 nm using Synergy H1 (BioTek, Winooski, VT). The graphs were generated as sigmoidal dose-response curves and EC₅₀ values were determined by nonlinear regression with a three-parameter logistic equation using GraphPad Prism software (GraphPad Software Inc., San Diego, CA, USA).

B1: Ab1 (anti-BCAM antibody, human IgG4 S228P isotype) (antibody)
heavy: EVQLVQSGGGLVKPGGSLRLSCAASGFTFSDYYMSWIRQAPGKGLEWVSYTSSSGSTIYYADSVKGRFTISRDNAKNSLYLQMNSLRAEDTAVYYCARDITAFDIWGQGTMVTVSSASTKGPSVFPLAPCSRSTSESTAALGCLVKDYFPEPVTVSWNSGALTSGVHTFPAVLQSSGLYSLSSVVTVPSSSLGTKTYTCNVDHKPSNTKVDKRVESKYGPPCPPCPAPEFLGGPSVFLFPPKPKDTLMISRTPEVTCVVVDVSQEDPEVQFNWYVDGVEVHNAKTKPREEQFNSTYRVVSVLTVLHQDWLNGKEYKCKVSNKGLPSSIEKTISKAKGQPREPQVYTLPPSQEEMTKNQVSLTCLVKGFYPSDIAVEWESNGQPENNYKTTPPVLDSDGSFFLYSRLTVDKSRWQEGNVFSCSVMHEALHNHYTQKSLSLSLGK
light: LPVLTQPPSASGSPGQSVTISCTGTSSDVGGYNYVSWYQQHPGKAPKLMIYEVNKRPSGVPDRFSGSKSGNTASLTVSGLQAEDEADYYCCSYAGSNNYVFGTGTKVTVLGQPKAAPSVTLFPPSSEELQANKATLVCLISDFYPGAVTVAWKADSSPVKAGVETTTPSKQSNNKYAASSYLSLTPEQWKSHRSYSCQVTHEGSTVEKTVAPTECS
notes: human IgG4 S228P isotype, lambda light chain; expressed in ExpiCHO-S cells
B1: the EC50 – broadly, the midpoint of the concentration-response curve – in test [1] is 0.184 nM and 0.027 µg/mL; in test [2], 0.112 nM; in test [3], 1.28 nM and 0.192 µg/mL.

B2: Ab2 (anti-BCAM antibody, human IgG1 isotype) (antibody)
heavy: not shown
light: B1 light
notes: human IgG1 isotype
For the molecule B2, the 50% effective concentration (EC50) was 0.232 nM and 0.034 µg/mL in test [1]; 0.078 nM in test [2].

B3: Ab3 (anti-BCAM antibody, human IgG1 LALA isotype) (antibody)
heavy: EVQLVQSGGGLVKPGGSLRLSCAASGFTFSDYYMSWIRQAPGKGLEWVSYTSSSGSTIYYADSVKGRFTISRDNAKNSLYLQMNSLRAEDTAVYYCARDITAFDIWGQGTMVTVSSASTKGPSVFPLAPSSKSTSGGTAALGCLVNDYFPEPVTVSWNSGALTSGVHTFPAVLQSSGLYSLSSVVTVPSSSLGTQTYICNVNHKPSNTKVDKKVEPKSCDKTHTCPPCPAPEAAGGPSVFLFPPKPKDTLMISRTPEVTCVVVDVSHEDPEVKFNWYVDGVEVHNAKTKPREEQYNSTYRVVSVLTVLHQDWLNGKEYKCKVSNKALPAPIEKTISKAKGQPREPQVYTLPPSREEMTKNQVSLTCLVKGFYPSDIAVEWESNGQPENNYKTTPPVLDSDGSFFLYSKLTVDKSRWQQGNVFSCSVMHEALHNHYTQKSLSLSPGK
light: B1 light
notes: human IgG1 LALA isotype
As to B3, the EC50 in test [1] was 0.167 nM and 0.025 µg/mL; in test [3] it was 1.31 nM and 0.197 µg/mL.
